Results on one substance are retold here after patent US20130059772A1, “Use of Repeat Sequence Protein Polymers in Personal Care Compositions” (DANISCO US INC., priority 2003, published 2013).

A short description of series [1]: Glass transition and decomposition temperature (DSC, DMA, TGA). Type of series: physicochemical. On the procedure: In this Example, experiments performed to determine the glass transition temperature (Tg) and decomposition temperature of SELP47K. (Example 1) are described. Approximately 10 mg of SELP47K material was crimped in an aluminum (Al) pan, cooled to <−150° C., then heated to >200° C. at 10° C./min under a He (helium) atmosphere. […] This initially appeared to be followed by another endothermic region and the analysis was stopped near 225° C. […] Another sample of material was examined by TGA and found to have mass loss (−8%) from room temperature to approximately 200° C., confirming the broad endotherm observed with the first sample.
A strip of SELP47K was examined by using a dynamic mechanical analyzer (DMA) over the range of −150 to 200° C. […] Another DSC sample was run, pre-heating at 100° C. for 1 hour initially to remove volatiles. The mass loss endotherm was mostly removed, and a transition at 188° C. (half-height) remained. This run was stopped and the sample cooled and examined.

A short description of series [2]: Cloud point determination (turbidity at 300 nm, 20-80° C.). Format: physicochemical. The following applies: 0.05% solution in water.
Assay in series [3]: as above
Type of series: physicochemical. On the procedure: The cloud point of SELP47K was determined by first preparing 0.1% and 1% solutions of polydispersed SELP 47K (Example 2) in three different buffers: 50 mM acetate pH 5; 50 mM Tris pH 7; 50 mM Tris pH 9. A 0.5 M NaCl salt solution was prepared in water and salt containing solutions were prepared using this stock solution. Samples were placed in quartz cuvettes and the cloud point determination was carried out using a Cary 300 spectrophotometer equipped with a thermal program and multiple cuvettes configuration. Turbidity measurements were made at 300 nm and the temperature was varied from 20-80° C.

Series [4] is described as follows: Isoelectric point determination (IEF gel). Type of series: physicochemical. On the procedure:
In this Example, experiments performed to determine the isoelectric point and cloud point of SELP47K (Example 1) are described. The isoelectric point of SELP47K was determined by electrophoresing 5 mg/ml SELP47K solution using Isoelectric Focusing Electrophoresis (IEF) gel and Novex electrophoresis apparatus along with protein standards markers.

Series [5] concerns facial skin. Kind of series: Skin efficacy study: superficial facial line score (Packman and Gans). Format: in vivo, human. An excerpt:
(§1) Eleven impaneled subjects (age 35-70 years) showing clear signs of facial skin aging were provided with a non-moisturizing soap, (AVEENO®), one week prior to the study and were instructed to use the provided soap to wash the face and were required to refrain from excessive UV exposure. After a seven-day conditioning phase, subjects were acclimated to the ambient temperature and humidity for thirty minutes. One side of the face of each subject was designated as the measurement side by random selection by computer. After 30-minute acclimation period, baseline digital photographs were taken, and instrumental measurements, skin replica samples and visual evaluations were made. Photographs were taken, with a Canfield Scientific Camera, of the full face, the periorbital area, and the temporal side of eye. Chromameter (Model CR300, Minolta) measurements were taken from the periorbital area directly under the eye (Chardon et al., Int. J. Cosmet. Sci., 13:191-208 [1991]). […]
Evaluation of superficial facial lines was performed by an expert evaluator using the scoring method described by Packman and Gans (supra). A 7% decrease in the superficial facial line score was assessed at the 30-minute post-treatment interval compared to baseline, which was statistically significant at the 91% confidence level (p=0.09).

For series [6], the system named is facial skin. Nature of the series: Skin efficacy study: Chromameter a* (skin redness). Format: in vivo, human.
Text: as §1, with “[1991]). Silflo replicas (CuDerm Corporation, Dallas, Tx) were made from the periorbital area adjacent to the temporal side of the eye (Grove et al., J. Am. Acad. Dermatol., 21:631-637 [1998]; and Sun et al 1997 IFSCC Conference, Mexico).” for “[1991]).”
Chromometer values for L*, a*, and b* were read and total color value, E, was calculated for each subject. […]

In turn, “SELP47K: silk-elastin repeat sequence protein copolymer, head-[(GAGAGS)2(GVGVP)3GKGVP(GVGP)4(GAGAGS)2]13-tail (SEQ ID NO:19), 886 amino acids” gave a decomposition temperature in series [1] of 332 °C. Moreover, the glass transition entry in series [1] (film material, DMA/DSC) was “approximately 189 °C”. For the same substance, the cloud point entry is “remains soluble in water even at 80 °C” in series [2]; 50 °C in series [3] (0.1% solution, 0.5 M NaCl, irrespective of pH); “remained soluble even at 80 °C” in series [3] (0.1% solution, pH 5); 60 °C in series [3] (0.1% solution, pH 9); 70 °C in series [3] (1% solution in water); 55 °C in series [3] (1% solution, 0.5 M salt, irrespective of pH). Moreover, the cloud point in series [3] (1% solution, 5-9 pH range) is approximately 65 °C; in series [3] (1% solution, pH 5 buffer, 0.2 M salt) it was 65 °C; in series [3] (1% solution, pH 5 buffer, 0.5 M salt) it was “below 60 °C”; in series [3] (1% solution, pH 5 buffer, no salt), 75 °C. The Isoelectric Point in series [4] (5 mg/ml solution, IEF gel) worked out at 10.4. Also, the “pI of the protein” value in series [4] (stated in production example) is reported as 10.5. In addition, the “Superficial Facial Line Score, Mean” value with facial skin [5] (5% aqueous solution applied once to face, 30 Minutes Post, baseline mean 40) came to 37. Besides, in the series on facial skin [5] (5% aqueous solution, 30-minute post-treatment vs baseline, p=0.09), the “decrease in the superficial facial line score” value worked out at 7%. For the same substance, in the series with facial skin [6] (5% aqueous solution applied once to face, 30 Minutes Post, baseline mean 11.05), the “Chromameter a* Score, Mean” value was 10.39. Further, the “decrease in average a* value (redness of the skin)” value in the series with facial skin [6] (5% aqueous solution, 30 minutes post vs baseline, p=0.024) came out at 6%.
